B1: Twister Ribozyme (parent)
chain: AACACUGCCAAUGCCGGUCCCAAGCCCGGAUAAAAGUGGAGGGGGCGG

Variants of B1 are the subject of this data set. The experiment in a line: self-cleavage, relative activity (ratio to wild type); higher = more cleavage; co-transcriptional.
Turning to C27U A32G, the self-cleavage was 0.697.

Turning to A2C G16C, the self-cleavage worked out at 0.0398.

For G42A G47A, the self-cleavage came out at 0.282.

In the case of G13U A33U, the self-cleavage was found to be 0.403.

In the case of A11G G28A, the self-cleavage was determined as 0.84.

For the variant G24C U31G, the self-cleavage was found to be 0.0739.

Consider U6G G16C, for which the self-cleavage is 0.156.

Turning to G7C G17C, the self-cleavage turned out to be 0.0528.

Take U31A A40U: the self-cleavage came out at 0.136.

As for G13U U37C, the self-cleavage was determined as 0.133.

For the variant A40C G43C, the self-cleavage is 0.157.

C25U G47U: the self-cleavage stood at 0.573.

Consider A22C G47C, for which the self-cleavage was determined as 0.458.

With A35C G43A, the self-cleavage worked out at 0.235.

Regarding C8U G13A, the self-cleavage amounted to 0.342.

Consider A32C A34C, for which the self-cleavage was 0.329.

On to G7A A11U, for which the self-cleavage was 0.573.

As for A2U A40G, the self-cleavage was determined as 0.163.

For the variant C3G G24U, the self-cleavage stood at 0.0918.

G7C C26U: the self-cleavage was 0.0512.

Turning to G13A G24C, the self-cleavage was found to be 0.129.

As to C15G G17C, the self-cleavage turned out to be 0.157.

On to A22U G45C, for which the self-cleavage was 0.401.

For A4U U12G, the self-cleavage was found to be 0.168.

Consider C20U G36A, for which the self-cleavage is 0.216.

As to G13U G29C, the self-cleavage worked out at 0.555.

Regarding C20A U37C, the self-cleavage is 0.111.

In the case of G16U G29U, the self-cleavage worked out at 0.87.

Take C15G G24U: the self-cleavage was 0.0758.

In the case of G7A G28C, the self-cleavage turned out to be 0.227.

On to G36A G38A, for which the self-cleavage amounted to 0.359.

Take G13A C46U: the self-cleavage is 0.931.

With A4G G44C, the self-cleavage worked out at 0.645.

As for C9U G43U, the self-cleavage was 0.126.

As for C27A G28A, the self-cleavage was found to be 0.423.

For U6G G41A, the self-cleavage amounted to 0.156.

For the variant A2C G13U, the self-cleavage amounted to 0.0549.

As to G16A C27U, the self-cleavage worked out at 1.17.

Regarding C26A G43A, the self-cleavage was found to be 0.124.

Take C9G G44A: the self-cleavage is 0.731.

On to A10C G44A, for which the self-cleavage is 0.932.

For U18C C19A, the self-cleavage amounted to 0.0644.

As to G42A G48C, the self-cleavage came to 0.624.

For C8G C27A, the self-cleavage was 0.0513.

C20G A34C: the self-cleavage stood at 0.0838.

Turning to U12G G24U, the self-cleavage amounted to 0.167.

Consider A11C G17U, for which the self-cleavage worked out at 0.14.

G39A G47A: the self-cleavage is 0.363.

With A40G G43A, the self-cleavage was 0.147.

For the variant A32U A33U, the self-cleavage amounted to 0.938.

Consider C19G A22G, for which the self-cleavage was found to be 0.0844.

U31A G42A: the self-cleavage is 0.349.

G7U A30G: the self-cleavage stood at 0.163.

Turning to C20U U37A, the self-cleavage is 0.474.

Turning to U6G A32G, the self-cleavage turned out to be 0.337.

On to C27G G28A, for which the self-cleavage was found to be 0.0984.

As for A40U G44C, the self-cleavage came to 0.178.

With C9U G39A, the self-cleavage was determined as 0.139.

With A40U G47C, the self-cleavage was 0.142.

As for U6G G24U, the self-cleavage stood at 0.145.

With A2C G43C, the self-cleavage was 0.0309.

With A35U G41C, the self-cleavage amounted to 0.206.

For A11C U12C, the self-cleavage amounted to 0.79.

Turning to A11U A40U, the self-cleavage was 0.142.

For the variant A1C A2C, the self-cleavage is 1.36.

Consider C19A C25G, for which the self-cleavage came out at 0.0863.

In the case of G7C A22U, the self-cleavage was 0.0623.

As to G13U G48A, the self-cleavage is 0.309.

Take A11U C27U: the self-cleavage was found to be 0.894.

On to U6G G17U, for which the self-cleavage was 0.0541.

As to C20A C46U, the self-cleavage turned out to be 0.154.

In the case of C3A G43A, the self-cleavage was 0.0599.

As for A23C G36C, the self-cleavage turned out to be 0.102.

Take A32C G44U: the self-cleavage amounted to 0.936.

C15G U18C: the self-cleavage came to 0.048.

With C14G G43A, the self-cleavage came out at 0.0789.

On to A35C G38C, for which the self-cleavage worked out at 0.921.

Turning to C9U A40U, the self-cleavage turned out to be 0.162.

With A22C C27G, the self-cleavage was 0.101.

For the variant C20G A32C, the self-cleavage was determined as 0.078.

Turning to G7A G48A, the self-cleavage amounted to 0.26.

A1C A22C: the self-cleavage turned out to be 0.134.

For A11C G45A, the self-cleavage was determined as 0.938.

As to G28C A34C, the self-cleavage was 0.154.

Turning to U12A C46U, the self-cleavage is 0.977.

In the case of A30U G45A, the self-cleavage is 0.817.

Consider C8G G24U, for which the self-cleavage worked out at 0.747.

In the case of C27U G43U, the self-cleavage stood at 0.219.

As for G17U C25G, the self-cleavage is 0.0862.

As for G16C G47A, the self-cleavage turned out to be 0.165.

In the case of G13U G24A, the self-cleavage is 0.0906.

Take C27G G39U: the self-cleavage turned out to be 0.123.

For the variant A22G G24A, the self-cleavage was determined as 0.114.

Take C3G G38C: the self-cleavage came to 0.449.

As for C3U A35C, the self-cleavage was determined as 0.493.

Regarding C21A G24C, the self-cleavage was found to be 0.0911.

Regarding U18A C27G, the self-cleavage came to 0.0805.

Take A1C G16C: the self-cleavage was 0.192.

In the case of A1G U6A, the self-cleavage is 0.346.

Consider C5G A11C, for which the self-cleavage was found to be 0.298.

As to C27U G45U, the self-cleavage came to 0.638.

Regarding C26A G42A, the self-cleavage was found to be 0.132.

Take U37G G42C: the self-cleavage turned out to be 0.103.

For A11C G29C, the self-cleavage is 0.668.

In the case of A32G C46U, the self-cleavage stood at 0.933.

For G36C G45C, the self-cleavage is 0.201.

Take A22C C26G: the self-cleavage turned out to be 0.112.

Regarding G13U G43U, the self-cleavage was 0.155.

As to U12G G43C, the self-cleavage was found to be 0.274.

In the case of A30C G41A, the self-cleavage stood at 0.133.

As to A10C G29A, the self-cleavage was 0.86.

C14U C21G: the self-cleavage was determined as 0.108.

C14G U37A: the self-cleavage was found to be 0.0885.

As for A1C G36A, the self-cleavage was found to be 0.203.

As for U18C C26U, the self-cleavage was 0.0772.

For C14A A33G, the self-cleavage was 0.84.

For C21U C27U, the self-cleavage was found to be 0.104.

As for C15U G17C, the self-cleavage amounted to 0.0992.

On to A2G G42A, for which the self-cleavage amounted to 0.148.

A22G G48U: the self-cleavage amounted to 0.334.

Take G28C G48A: the self-cleavage was found to be 0.405.

On to G39C G48A, for which the self-cleavage was 0.138.

Take C27U G38U: the self-cleavage amounted to 0.756.

Consider A4C G45U, for which the self-cleavage was determined as 0.0976.

U18G C19U: the self-cleavage was 0.105.

Take U18G C25U: the self-cleavage came out at 0.085.

Take U18G C25A: the self-cleavage amounted to 0.138.

Turning to A1G G44C, the self-cleavage stood at 0.251.

On to G16A U18C, for which the self-cleavage was 0.41.

For A2U A22G, the self-cleavage came to 0.0815.

As for G29U G42A, the self-cleavage was determined as 0.224.

For the variant C9A A23C, the self-cleavage was found to be 0.0979.

Take U18A A34G: the self-cleavage worked out at 0.171.

Turning to C25U G48A, the self-cleavage came out at 0.559.

For the variant C3A A35U, the self-cleavage came to 0.16.

In the case of A23U G39A, the self-cleavage was found to be 0.061.

Turning to A11U A34U, the self-cleavage was found to be 0.974.

Turning to C5G C27U, the self-cleavage was 0.445.

As for A32G U37A, the self-cleavage was 0.752.

On to U31G G42A, for which the self-cleavage was 0.497.

Regarding A2C A22U, the self-cleavage is 0.0564.

In the case of U6C G45U, the self-cleavage amounted to 0.495.

In the case of C9G U31C, the self-cleavage is 0.722.

For A2G U12G, the self-cleavage was determined as 0.252.

For the variant U12A C26U, the self-cleavage came to 0.563.

Take C14U G45A: the self-cleavage was 0.999.

Consider C3U A23G, for which the self-cleavage is 0.101.

Consider A23C U37C, for which the self-cleavage came out at 0.0915.

As to U12A G29A, the self-cleavage was found to be 1.11.

Take C27U G36C: the self-cleavage came out at 0.21.

In the case of A33U G42A, the self-cleavage came to 0.283.

G13C G36A: the self-cleavage stood at 0.126.

Turning to C5G U6C, the self-cleavage stood at 0.16.

As to G36U G44A, the self-cleavage amounted to 0.717.

With C5A C8A, the self-cleavage is 0.133.

For the variant C21G U31A, the self-cleavage is 0.0515.

For G17C U31G, the self-cleavage was found to be 0.139.

A4U G28C: the self-cleavage was found to be 0.0611.

For U6A G43U, the self-cleavage stood at 0.245.

Take G13U A32G: the self-cleavage was determined as 0.354.

For the variant C14G A40U, the self-cleavage was 0.0589.

U18A G28U: the self-cleavage was 0.314.

C5U G43U: the self-cleavage worked out at 0.2.

As for A35C G47C, the self-cleavage is 0.574.

Consider G28U G41C, for which the self-cleavage came out at 0.263.

Regarding C15U G41U, the self-cleavage came to 0.452.

As to U12A G45A, the self-cleavage was found to be 1.09.

The record behind these values is the RNAGym collection of RNA variant scans (doi:10.7554/elife.80360).
